Experimental data reported in patent US20210403593A1 (TIZONA THERAPEUTICS, published 2021).

T1: cynomolgus macaque (Macaca fascicularis) CD39 (Macaca fascicularis, UniProt P49961 7-510 (human entry))
T1 construct: On engineered CHO cells and on primary cyno B cells and monocytes; also called cyno CD39; cCD39
T1 chain: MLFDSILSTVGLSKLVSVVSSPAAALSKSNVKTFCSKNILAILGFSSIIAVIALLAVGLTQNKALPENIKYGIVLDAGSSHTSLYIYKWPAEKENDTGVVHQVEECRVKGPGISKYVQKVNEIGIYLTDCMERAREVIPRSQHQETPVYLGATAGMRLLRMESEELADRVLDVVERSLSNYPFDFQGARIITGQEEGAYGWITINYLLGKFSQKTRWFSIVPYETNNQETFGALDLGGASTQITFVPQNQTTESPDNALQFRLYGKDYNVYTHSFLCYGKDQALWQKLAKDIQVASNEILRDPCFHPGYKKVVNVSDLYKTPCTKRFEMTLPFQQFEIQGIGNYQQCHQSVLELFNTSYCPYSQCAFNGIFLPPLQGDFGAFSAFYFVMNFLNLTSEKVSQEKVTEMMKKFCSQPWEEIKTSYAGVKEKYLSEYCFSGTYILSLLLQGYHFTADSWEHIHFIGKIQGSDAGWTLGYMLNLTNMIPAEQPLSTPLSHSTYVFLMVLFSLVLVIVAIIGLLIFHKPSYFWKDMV

T2: human CD39 (cellular) (human, UniProt P49961 1-510)
T2 construct: Same protein on engineered CHO cells and on cells that express it endogenously; also called hCD39; cellular CD39
T2 sequence: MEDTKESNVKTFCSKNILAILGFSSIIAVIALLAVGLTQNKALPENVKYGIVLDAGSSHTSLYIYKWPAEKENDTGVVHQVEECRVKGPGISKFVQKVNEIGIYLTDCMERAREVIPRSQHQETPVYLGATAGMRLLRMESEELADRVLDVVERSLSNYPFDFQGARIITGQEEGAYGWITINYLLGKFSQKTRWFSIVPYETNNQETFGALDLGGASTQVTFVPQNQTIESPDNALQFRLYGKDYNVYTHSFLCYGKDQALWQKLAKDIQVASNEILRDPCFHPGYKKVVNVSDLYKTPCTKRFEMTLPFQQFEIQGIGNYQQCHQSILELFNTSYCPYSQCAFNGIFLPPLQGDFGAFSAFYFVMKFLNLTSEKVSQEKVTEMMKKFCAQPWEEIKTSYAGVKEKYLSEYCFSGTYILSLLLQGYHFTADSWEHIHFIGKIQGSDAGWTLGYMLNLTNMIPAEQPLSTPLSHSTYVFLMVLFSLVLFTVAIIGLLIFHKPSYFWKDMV

T3: Chimera #13 (Homo sapiens (Human), UniProt P49961 1-510)
T3 construct: Expressed on CHO cells
T3 sequence: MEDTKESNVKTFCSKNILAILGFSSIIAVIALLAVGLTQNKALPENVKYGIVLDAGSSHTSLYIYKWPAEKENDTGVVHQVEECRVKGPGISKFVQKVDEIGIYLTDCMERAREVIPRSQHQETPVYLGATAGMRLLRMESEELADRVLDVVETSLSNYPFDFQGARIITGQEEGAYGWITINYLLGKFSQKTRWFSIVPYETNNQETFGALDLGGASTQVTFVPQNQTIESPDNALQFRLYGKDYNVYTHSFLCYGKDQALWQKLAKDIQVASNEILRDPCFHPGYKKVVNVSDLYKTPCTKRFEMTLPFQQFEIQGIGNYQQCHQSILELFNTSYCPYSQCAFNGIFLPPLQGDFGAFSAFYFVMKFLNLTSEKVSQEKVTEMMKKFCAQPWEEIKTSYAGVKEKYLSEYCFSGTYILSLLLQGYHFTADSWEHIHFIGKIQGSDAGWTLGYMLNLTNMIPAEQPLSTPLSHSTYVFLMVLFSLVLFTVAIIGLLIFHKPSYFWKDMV


Tests used:
[1] = target: T1, cynomolgus macaque (Macaca …); assay: flow cytometry, 100 nM IgG, MFI on CHO-cCD39 / MFI on parental CHO;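 further: antibodies bound to the cells for 30 min in PBS, then bound IgG was revealed with a fluorescent goat anti-human IgG secondary antibody, 20 min on ice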
Experimental: (§1) 100 nanomolar IgGs (each antibody is indicated as a unique clone number in the FIG.) were incubated at 25° C. for 30 minutes on ice in phosphate buffered saline (PBS) with parental CHO cells or CHO cells engineered to express either human or cynomolgus macaque (Macaca fascicularis) CD39 (CHO CD39 cells). Cells were then washed with ice cold PBS and incubated with a fluorescently labeled goat-anti-human IgG for 20 minutes on ice. Cells were washed and resuspended in ice cold PBS prior to analysis by flow cytometry.

[2] = target: T2, human CD39 (cellular); assay: flow cytometry, 100 nM IgG, MFI on CHO-hCD39 / MFI on parental CHO;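 further: cells exposed to IgG for 30 min on ice in PBS, bound antibody then revealed with a fluorescent goat anti-human IgG secondary (20 min, on ice)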
Experimental: as §1

[3] = target: T3, Chimera #13; assay: FACS on CHO cells; human CD39 with mouse D99 and T154
Experimental: The chimeras were expressed in CHO cells and the ability of anti-human CD39 antibodies to bind the chimeras tested via FACS. In brief, cells were washed and blocked in FACS buffer (PBS/2% FBS) for 30 min on ice. […] After 2 washes, cells were resuspended in FACS buffer and analyzed on BD Fortessa. Data was processed with FlowJo.

Row | Binder | Cell Binding (FOB) [1] | Cell Binding (FOB) [2] | binding result [3]
1 | 31901 (antibody, human IgG4 S228P, kappa, V domains shown) VH: QVQLVQSGAEVKKPGSSVKVSCKASGGTFSSLPISWVRQAPGQGLEWMGGIGFGTANYAQKFQGRVTITADESTSTAYMELSSLRSEDTAVYYCARGGAKYAGRYGMDVWGQGTTVTVSS VL: not shown | 4660 fold over background | 1110 fold over background | no binding (tested: 15 ug/ml)
2 | 31905 (antibody, human IgG4 S228P, kappa, V domains shown) VH: QVQLVQSGAEVKKPGSSVKVSCKASGGTFPSNAISWVRQAPGQGLEWMGGIGFGTANYAQKFQGRVTITADESTSTAYMELSSLRSEDTAVYYCARGGAKYARTYGMDVWGQGTTVTVSS VL: not shown | 4940 fold over background | 1080 fold over background | no binding (tested: 15 ug/ml)
